Measured values as given in the nanobody polyreactivity screen of Harvey et al. (2022).

Experiment: yeast display, Sf9 membrane polyspecificity reagent, FACS + sequencing; frameworks hold sequencing errors
Outline: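 Sorting gates, low and high (top ~1%), were placed on anti-HA fluorescence to track expression and on streptavidin fluorescence to track reagent binding. A clone's polyreactivity label is taken from the gate it came out of. The reagent was 10% biotinylated, detergent-solubilized Sf9 membrane, applied for 1 hour at 4 °C to galactose-induced yeast display cells.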

| Sequence | polyreactivity (PSR sort gate) |
| --- | --- |
| QVQLVESGGGLVQAGGSLRLSCAASGLTFYSYAMGWYSPAPGKERELVAAITSSGSITYYADSVKGRFTISRDNAKNTVYLQMNSLKPEDTAVYYCAARPYRVRGQRFEGNYWGQGTQVTVSS | high polyreactivity |
| QVQLVESGGGLVQAGGSLRLSCAASGLTFYTYAMGWYRQAPGKERELVAAISSGGSTNYADSVKGRFTISRDNAKNTVYLQMNSLKPEDTAVYYCAADPSYYTYFSFDLSESDYWGLGTQVTVSS | low polyreactivity |
| QVQLVESGGGLVQAGGSLRLSCAASGLTFYTYAMGWYRQAPGKERELVAAITYSGGRTSYADSVKGRFTISRDNAKNTVYLQMNSLKPEDTAVYYCAARTLGRRLDYGYWGQGTQVTVSS | low polyreactivity |
| QVQLVESGGGLVQAGGSLRLSCAASGLTFYVNAMGWYRQAPGKEMELVAAITRGGSTNYADSVKGRFTISRDNAKNTVYLQMNSLKPVDTAVYYCNARKRYHSRYSGGYREGYWGQGTQVTVSS | low polyreactivity |
| QVQLVESGGGLVQAGGSLRLSCAASGLTFYVYAMGWYRQAPGKERELVAAISGRGGRTYYADSVKGRLTISRDNAKNTVYLQMNSLKPEDTAVYYCNRDYAVFSYGEYDSWGQGTQVTVSS | high polyreactivity |
| QVQLVESGGGLVQAGGSLRLSCAASGLTFYVYAMGWYRQAPGKERELVAAISSGGRTYYADSVKGRFTISRDNAKNTVYLQMNSLKPEDTAVYFCAAVRHRNYGYWGQGTQVTVSS | high polyreactivity |
| QVQLVESGGGLVQAGGSLRLSCAASGLTFYVYAMGWYRQAPGKERELVAAISSGGRTYYADSVKGRFTISRDNAKNTVYLQMTSLKPEDTAVYYCAAVRHRNYGYWGQGTQVTVSS | high polyreactivity |
| QVQLVESGGGLVQAGGSLRLSCAASGLTFYYYAMGWYRQAPGKERELVAAISATGGRTDYADSVKGRFTISRDNAKNTVYLQMNSLKPADPAVYYCAADTPYLRRRRGMDYWGQGTQVTVSS | high polyreactivity |
| QVQLVESGGGLVQAGGSLRLSCAASGLTFYYYAMGWYRQAPGKERELVAAITGSGGRTSYADSVKGRFTISRDNAKNTVYLQMNSLKPEDTAVYYCAARNKRRGYPWQGQQKVLNFDYWGQGTQVTVSS | high polyreactivity |
| QVQLVESGGGLVQAGGSLRLSCAASGLTFYYYYTMGWYRQAPGKERELVAAISRSGSTNYADSVKGRFTISRDNAKNTVYLQMNSLKPEDTAVYYCARSYRSDGSRFGYWGQGTQVTVSS | low polyreactivity |
| QVQLVESGGGLVQAGGSLRLSCAASGLTIFVNAMGWYRQAPGKERELVATISGGGSTYYADSVKGRFTISRDNAKNTVYLQMNSLKPEDTAVYYCNADVLFYTYYTRGRFDFDYWGQGTQVTVSS | low polyreactivity |
| QVQLVESGGGLVQAGGSLRLSCAASGLTIKPNAMGWYRQAPGKERELVAAIDWSGGSTYCADSVKGRFTISRDNAKNTVDLQMNSLKPEDTAVYYCAADPPDRLFLYDYWGQGTQVTVSS | low polyreactivity |
| QVQLVESGGGLVQAGGSLRLSCAASGLTIQRNDMGWYRQAPGKEREFVATITSNAGSTYYADSVKGRFTISRDNAKNPVYFQMNSLKPEDTAVYYWARERWWGGSDYWGQGTQVTVSS | high polyreactivity |
| QVQLVESGGGLVQAGGSLRLSCAASGLTIQYNAMVWYRQAPGKERELVAAISRSGGSTYYADSVKGRFTISRDNAKNTEYLQMISLKPEDTAVYYCNKVSPYRGYYWGQGTQVTVSS | high polyreactivity |
| QVQLVESGGGLVQAGGSLRLSCAASGLTISTNAMGWYRQAPGKERELVAAISRAGSTYYADSVKGRFTISRDNAKNTVYLQMNSLKPEDTAVYYCAAKYRYSTYHRGSFNFWGQGTQVTVSS | high polyreactivity |
| QVQLVESGGGLVQAGGSLRLSCAASGLTISWNAMGWYRQAPGKERELVAAISSRGGSTYYADSVKGRFKISRDNAKNTVYLQMNSLKPEDTAVYYCAAEGYTYYPVYSTRMYYWGQGTQVTVSS | low polyreactivity |
| QVQLVESGGGLVQAGGSLRLSCAASGLTISYYAMGRYRQAPGKERELVAAISTDSSTNYADSVKGRFTISRDNAKNTVYLQMNSLKPEDTAVYYCAAVPRGTQCAMDYWGQGTQVTVSS | low polyreactivity |
| QVQLVESGGGLVQAGGSLRLSCAASGLTITSNAMGWYRQAPGKERELVASITWSGGSTSYADSVKGRFTISRDNAKNTVYLQMNSLKPEDTAVYDCAADRQRSHRVGTKGHRVGYWGQGTQVTVSS | high polyreactivity |
| QVQLVESGGGLVQAGGSLRLSCAASGLTIWKYTMGWYRQAPGKERELVAAISISGTNTYYADSVKGRFTISRDNAKNTVYLQMNSLKPEDTAVYYCAAVRGYPPTNYYYWGQGTQVSVSS | high polyreactivity |
| QVQLVESGGGLVQAGGSLRLSCAASGLTIYAYAMGWYRQAPGKERELVAIISYNGGRTYYADSVKGRFTISRDNAKNTVYLQMNSLKPEDTAVYYCAARGREVRYDYWGQGTQVTVSS | high polyreactivity |
| QVQLVESGGGLVQAGGSLRLSCAASGLTLETNAMGWYRQAPGKERELVAGITYSGGTTYYADSVKGRFTISRDNAKNTVYLQMNSLKPEDTAVYYCNAQERRVRDYDYWGQGTEVTVSS | low polyreactivity |

| Sequence | polyreactivity (PSR sort gate) |
| --- | --- |
| QVQLVESGGGLVQAGGSLRLSCAASGLTLGSYALGWYRQAPGKERELVAAISRRSGRTYYADSVKGRFTISRDNAKNTVYLQMNSLKPEDTAVYYCNRGYTAQVYTEFDYWGQGTQVTVSS | low polyreactivity |
| QVQLVESGGGLVQAGGSLRLSCAASGLTLPYNAMGSYRQAPGKERELVAAITCIGGSTYYADSVKGRFTISRDNAKNTVYLEMNSLKPEDSAVYYCAKEVRGPIIYLEGYWGQGTQVTVSS | low polyreactivity |
| QVQLVESGGGLVQAGGSLRLSCAASGLTLSGYAMGWYRQAPGKERELVAAISSTGGSTYYADSVKGRFTISRDNAKNTVYLQMNSLKPEATAVYYCAKGYSPTRVRLRYPRYDTYNHWGQVTQVTVSS | high polyreactivity |
| QVQLVESGGGLVQAGGSLRLSCAASGLTLSYTMGWYRQAPGKERELVASITWSGTRTYYADSVKGRFTISRDNAKNTVYLQMNSLKPEDTAVYYCARRSSYGSWGYNYWGQGTQVTVSS | high polyreactivity |
| QVQLVESGGGLVQAGGSLRLSCAASGLTLTYYAMGWYRQAPGKERELVAAISSSGGSTYYADSVKGRFTISRDNAKNTVYLQMNSLKPEDAAVYYCAATRVSWTGRDDYWGQGTQVTVSS | high polyreactivity |
| QVQLVESGGGLVQAGGSLRLSCAASGLTLTYYAMGWYRQAPGKERELVAAISSSGGSTYYADSVKGRFTISRDNAKNTVYLQMNSLKPEDTAVYYCAATRVSWTGRDDYWGQGTQVTVSS | high polyreactivity |
| QVQLVESGGGLVQAGGSLRLSCAASGLTLVTIGMGWYSQAPAKERELVAAIDSTGGRTYYADSVKGRFTISRDNAKKTVYLQMTSLKPEDTAVSYCNRRWYARAAYWGQGTQVTVSS | high polyreactivity |
| QVQLVESGGGLVQAGGSLRLSCAASGLTLYGYTMGWYRQAPGKERELGATITTGGDYTYYADSVKGRFTISRDNAKNTVYLQMNRLKPVDTAVYYCAAYSYGWDYSYDYWGQVTQVTVSS | low polyreactivity |
| QVQLVESGGGLVQAGGSLRLSCAASGLTLYQYSMGWYRQAPGKERELVAAIPTSGSTYFADSVKGRFTISRDNAKNTVYLQMNSLKPEDTAVYYCAADVYYVDTLSGYRYGYDYWGQCTQVTVSS | low polyreactivity |
| QVQLVESGGGLVQAGGSLRLSCAASGLTLYRYALGWYRQAPGKERELVAAISWGGGSTYYADSVKGRFTISRDNAKNTVYLQMNSLKPEDTAVYYCAAGRLLYIPRYYYWGQGTQVTVSS | high polyreactivity |
| QVQLVESGGGLVQAGGSLRLSCAASGLTSVRNAMGWYRQAPGKERELVAGISWSGGRTYYADSVKGRFTISRDNAKNTVYLQMNSLKPEDTAVYYCNKVRAYYTQEGSWGQGTQVTVSS | high polyreactivity |
| QVQLVESGGGLVQAGGSLRLSCAASGLYAMGWYRPAPGKERELVADINSSGGSITNYADSVKGRFTISRDNAKNTVYLQMISLKPEDTAVYYCAKRGPYFAYDYWGQGTQVTVSS | low polyreactivity |
| QVQLVESGGGLVQAGGSLRLSCAASGMGWYRQAPGKERELVATITTGGTYADSVKGRFTISRDNAKNTVYLQMNSLKPEDTAVYYCAADGLGSVYYLRYNYWGQGTQVTVSS | low polyreactivity |
| QVQLVESGGGLVQAGGSLRLSCAASGMIFKYYVMGWYRQAPGKERELVAAIRWSGGITSYADSVKGRFTISRDNAKNTVYLQMNSLKPEDTAVYYCAVAHSRLRTAYTFSVQRYDYWGQGTQVTVSS | low polyreactivity |
| QVQLVESGGGLVQAGGSLRLSCAASGMTFTDYAMGWYRQAPGKERELVAAISRSGGTTYYADSVKGRFTISRDNAKNTVYLQMNSLKPEDTAVYYCAARVTPGRNGGGYWGQGTQVTVSS | high polyreactivity |
| QVQLVESGGGLVQAGGSLRLSCAASGNAMGWYRQAPGKERELVASINRSGGRTYFADSVKGRFTISRDNAKNTVYLQMNRLIPEDTAVYYCAKGPRGADLTHGAYVEMEYWGQGTQVTVSS | low polyreactivity |
| QVQLVESGGGLVQAGGSLRLSCAASGNAMGWYRQAPGKERELVASINRSGGSTYYADSVKGRFTISRDNAKNTVYLQMNSLIPEDTAVYSCNTDVGATVEDDYWGQGTQVTVSS | low polyreactivity |
| QVQLVESGGGLVQAGGSLRLSCAASGNAMGWYRQAPGNERELVAAITRRGGSTYYADSVKGRFTISRDNAKNTVYLQMNSLKPEDTAVYYCAADNPSYNLWYGYWGQGTQVTVSS | low polyreactivity |
| QVQLVESGGGLVQAGGSLRLSCAASGNIFATYAMGWYRHAPGKEREFVAAITSRGGGTFYADSVKGRFTISRDNAKNTVYLQMNSLKPEDTAVYYCAARRSGHWLYGYWGQGTQVTVSS | high polyreactivity |
| QVQLVESGGGLVQAGGSLRLSCAASGNIFCINTMGWYRQAPGKERELVAAIDASDGSTYYADSVKGRFTISRDNAKNTVYLQMNSLKPEDTAVYYCATRSGYDSVYYFYTLWYYYWGQGTQVTVCS | low polyreactivity |
